Assay results as given in patent US10472401B2, “Peptides and combination of peptides for use in immunotherapy against ovarian cancer and other cancers” (immatics biotechnologies GmbH, priority 2015, dated 2019).

Biological target: HLA-A*02:01 (Homo sapiens, UniProt P04439, D140Y/D185E/D98H/E176V/E277Q/G131W/G231S/I119V/I121R/I166T/I218V/L300P/L318F/N151K/N90K/P208A/P217A/Q86G/Q94H/R138H/R169H/T345S)
Test: MHC binding assay (UV-ligand exchange, ELISA of stabilized MHC complexes)
Conditions: MHC class I binding score; binding to HLA-A*02:01 ranged by peptide exchange yield (UV-ligand exchange, ELISA)
How it was run: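 Peptide-MHC complexes made by UV-ligand exchange, cleaving a UV-sensitive placeholder peptide and replacing it with the test peptide. Exchange yield measured by ELISA: streptavidin-captured monomers (diluted 100-fold, 1 h, 37 °C) detected with HRP anti-β2m and TMB, absorbance at 450 nm.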

Row | Substance | Peptide exchange
1 | 212 (ALWDQDNLSV; listed as Homo sapiens) [compound 212] | ″++″ (≥20% = ++)
2 | 272 (ALGNTVPAV; listed as Homo sapiens) [compound 272] | ″+++″ (≥50% = +++)
3 | 204 (KIAENVEEV; listed as Homo sapiens) [compound 204] | ″++″ (≥20% = ++)
4 | 139 (SVMEVNSGIYRV; listed as Homo sapiens) [compound 139] | ″+++″ (≥50% = +++)
5 | 121 (GVVDPRAISVL; listed as Homo sapiens) [compound 121] | ″++″ (≥20% = ++)
6 | 324 (FLYDEIEAEV; listed as Homo sapiens) [compound 324] | ″+++″ (≥50% = +++)
7 | 514 (ILVDWLVQV; listed as Homo sapiens) [compound 514] | ″+++″ (≥50% = +++)
8 | 42 (VLLQKIVSA; listed as Homo sapiens) [compound 42] | ″+++″ (≥50% = +++)
9 | 136 (YLADPSNLFVV; listed as Homo sapiens) [compound 136] | ″+++″ (≥50% = +++)
10 | 286 (YLFPGIPEL; listed as Homo sapiens) [compound 286] | ″+++″ (≥50% = +++)
11 | 363 (KVLDVSDLESV; listed as Homo sapiens) [compound 363] | ″++″ (≥20% = ++)
12 | 305 (SIANFSEFYV; listed as Homo sapiens) [compound 305] | ″++++″ (≥75% = ++++)
13 | 88 (FLLVGDLMAV; listed as Homo sapiens) [compound 88] | ″+++″ (≥50% = +++)
14 | 328 (ALNDQVFEI; listed as Homo sapiens) [compound 328] | ″+++″ (≥50% = +++)
15 | 31 (YLAPELFVNV; listed as Homo sapiens) [compound 31] | ″++″ (≥20% = ++)
16 | 553 (SLLNQDLHWSL; listed as Homo sapiens) [compound 553] | ″++++″ (≥75% = ++++)
17 | 233 (VLSETLYEL; listed as Homo sapiens) [compound 233] | ″++″ (≥20% = ++)
18 | 396 (ALLPDLPAL; listed as Homo sapiens) [compound 396] | ″+++″ (≥50% = +++)
19 | 274 (SLLFSLFEA; listed as Homo sapiens) [compound 274] | ″++″ (≥20% = ++)
20 | 206 (VLQEGKLQKLAQL; listed as Homo sapiens) [compound 206] | ″+++″ (≥50% = +++)
21 | 194 (ALPLFVITV; listed as Homo sapiens) [compound 194] | ″+++″ (≥50% = +++)
22 | 377 (FLLDSSASV; listed as Homo sapiens) [compound 377] | ″++″ (≥20% = ++)
23 | 231 (FLSPQQPPLLL; listed as Homo sapiens) [compound 231] | ″++″ (≥20% = ++)
24 | 133 (KVLSNIHTV; listed as Homo sapiens) [compound 133] | ″++″ (≥20% = ++)
25 | 525 (VLLEAGEGLVTI; listed as Homo sapiens) [compound 525] | ″+++″ (≥50% = +++)
26 | 560 (ALWDIETGQQTTT; listed as Homo sapiens) [compound 560] | ″+++″ (≥50% = +++)

Row | Substance | Peptide exchange
27 | 167 (KVLEVTEEFGV; listed as Homo sapiens) [compound 167] | ″+++″ (≥50% = +++)
28 | 228 (AMQEYIAVV; listed as Homo sapiens) [compound 228] | ″++″ (≥20% = ++)
29 | 135 (ALSEVDFQL; listed as Homo sapiens) [compound 135] | ″+++″ (≥50% = +++)
30 | 66 (FLDENIGGVAV; listed as Homo sapiens) [compound 66] | ″+++″ (≥50% = +++)
31 | 70 (GLLDYPVGV; listed as Homo sapiens) [compound 70] | ″+++″ (≥50% = +++)
32 | 437 (SMAPGLVIQAV; listed as Homo sapiens) [compound 437] | ″+++″ (≥50% = +++)
33 | 252 (LLIGTDVSL; listed as Homo sapiens) [compound 252] | ″+++″ (≥50% = +++)
34 | 232 (ALLEAQDVELYL; listed as Homo sapiens) [compound 232] | ″++″ (≥20% = ++)
35 | 223 (ALLENIALYL; listed as Homo sapiens) [compound 223] | ″+++″ (≥50% = +++)
36 | 564 (TVTNAVVTV; listed as Homo sapiens) [compound 564] | ″+++″ (≥50% = +++)
37 | 81 (FLFSQLQYL; listed as Homo sapiens) [compound 81] | ″++″ (≥20% = ++)
38 | 145 (FLATSGTLAGI; listed as Homo sapiens) [compound 145] | ″++″ (≥20% = ++)
39 | 95 (SVIPQIQKV; listed as Homo sapiens) [compound 95] | ″+++″ (≥50% = +++)
40 | 454 (KLPPPPPQA; listed as Homo sapiens) [compound 454] | ″+++″ (≥50% = +++)
41 | 32 (KLDDLTQDLTV; listed as Homo sapiens) [compound 32] | ″++″ (≥20% = ++)
42 | 352 (SLLELLHIYV; listed as Homo sapiens) [compound 352] | ″+++″ (≥50% = +++)
43 | 277 (LLPPLESLATV; listed as Homo sapiens) [compound 277] | ″++″ (≥20% = ++)
44 | 390 (ALFMKQIYL; listed as Homo sapiens) [compound 390] | ″+++″ (≥50% = +++)
45 | 40 (TLLVKVFSV; listed as Homo sapiens) [compound 40] | ″+++″ (≥50% = +++)
46 | 493 (GLLGEKTQDLIGV; listed as Homo sapiens) [compound 493] | ″+++″ (≥50% = +++)
47 | 16 (VLFQGQASL; listed as Homo sapiens) [compound 16] | ″+++″ (≥50% = +++)
48 | 356 (KLLGKLPEL; listed as Homo sapiens) [compound 356] | ″+++″ (≥50% = +++)
49 | 236 (GLLEAKVSL; listed as Homo sapiens) [compound 236] | ″+++″ (≥50% = +++)
50 | 53 (KMIETDILQKV; listed as Homo sapiens) [compound 53] | ″++++″ (≥75% = ++++)
51 | 238 (YLISFQTHI; listed as Homo sapiens) [compound 238] | ″+++″ (≥50% = +++)
52 | 364 (LLQNEQFEL; listed as Homo sapiens) [compound 364] | ″+++″ (≥50% = +++)

Row | Substance | Peptide exchange
53 | 354 (LILEGVDTV; listed as Homo sapiens) [compound 354] | ″++″ (≥20% = ++)
54 | 128 (YLFDDPLSAV; listed as Homo sapiens) [compound 128] | ″++″ (≥20% = ++)
55 | 59 (IMEDIILTL; listed as Homo sapiens) [compound 59] | ″+++″ (≥50% = +++)
56 | 93 (LLQAIKLYL; listed as Homo sapiens) [compound 93] | ″++″ (≥20% = ++)
57 | 392 (ALLHPQGFEV; listed as Homo sapiens) [compound 392] | ″++″ (≥20% = ++)
58 | 149 (NLLELFVQL; listed as Homo sapiens) [compound 149] | ″+++″ (≥50% = +++)
59 | 92 (YLIPFTGIVGL; listed as Homo sapiens) [compound 92] | ″++″ (≥20% = ++)
60 | 276 (ALFTFSPLTV; listed as Homo sapiens) [compound 276] | ″+++″ (≥50% = +++)
61 | 28 (QLLDETSAITL; listed as Homo sapiens) [compound 28] | ″+++″ (≥50% = +++)
62 | 131 (FVPPVTVFPSL; listed as Homo sapiens) [compound 131] | ″++″ (≥20% = ++)
63 | 119 (FLYIGDIVSL; listed as Homo sapiens) [compound 119] | ″++++″ (≥75% = ++++)
64 | 330 (QLALKVEGV; listed as Homo sapiens) [compound 330] | ″+++″ (≥50% = +++)
65 | 29 (KMLGIPISNILMV; listed as Homo sapiens) [compound 29] | ″+++″ (≥50% = +++)
66 | 344 (YLQDQHLLLTV; listed as Homo sapiens) [compound 344] | ″+++″ (≥50% = +++)
67 | 503 (SLNHFTHSV; listed as Homo sapiens) [compound 503] | ″+++″ (≥50% = +++)
68 | 62 (VLLDVSAGQLLM; listed as Homo sapiens) [compound 62] | ″++++″ (≥75% = ++++)
69 | 455 (SLLKEPQKVQL; listed as Homo sapiens) [compound 455] | ″++″ (≥20% = ++)
70 | 463 (SLVESHLSDQLTL; listed as Homo sapiens) [compound 463] | ″+++″ (≥50% = +++)
71 | 308 (SQYSGQLHEV; listed as Homo sapiens) [compound 308] | ″+++″ (≥50% = +++)
72 | 518 (KLNAEVACV; listed as Homo sapiens) [compound 518] | ″+++″ (≥50% = +++)
73 | 347 (SLFKHDPAAWEA; listed as Homo sapiens) [compound 347] | ″++++″ (≥75% = ++++)
74 | 140 (YMDAPKAAL; listed as Homo sapiens) [compound 140] | ″++″ (≥20% = ++)
75 | 160 (FLFDEEIEQI; listed as Homo sapiens) [compound 160] | ″+++″ (≥50% = +++)
76 | 281 (ILRESTEEL; listed as Homo sapiens) [compound 281] | ″+++″ (≥50% = +++)
77 | 201 (RLVDYLEGI; listed as Homo sapiens) [compound 201] | ″+++″ (≥50% = +++)
